Measurements: publication PMC7137805

How the values were obtained:
[1] = molecular target: Recombinant human laminin‐332 (human) (UniProt Q16787); assay: SPR; BIAcore 3000, 25 °C; laminin-332 immobilised on a CM5 chip (approx. 5000 RU); vWFA2 as analyte, 2.5-420 µM; running buffer 10 mM sodium phosphate pH 7.4, 150 mM NaCl; binding isotherms
[2] = molecular target: Recombinant human laminin‐332 (human) (UniProt Q16787); assay: SPR; as a1, with MgCl2 added to the running buffer to 2.5 mM

Row | Kd [1] [µM] | Kd [2] [µM] | Substance
1 | 440 | – | untagged vWFA2 (vWFA2 lacking any tag residues) of murine type VII collagen (from UniProt Q63870 1048-1238) (domain or fragment)
2 | 810 | 1100 | vWFA2 subdomain (amino acids 1048–1238) of murine type VII collagen, purified by intein cleavage (from UniProt Q63870 1048-1238) (domain or fragment)
